Laboratory results reported in patent US20230226096A1 (Orna Therapeutics, Inc., priority 2020, published 2023).

B1: Grapevine associated narnavirus-1 (nucleic acid, listed as Narnavirus sp.)
DNA: GCCCGGGGGGTGCAGTCCTGTGAAAGGGTCTGCACCATACTATATATGTATATGATTACATCCCAAAAGGCGACTTCGTTCAGGTTTTAAATCTGACGTAGGTCCAGTAAATAAGCATGTCAAAACATGTAAGTTTATCCTGTAATCTACTCTCATAAGATGAGATAAGATGATATTGCAGTTCCCATGTAAATAAATCCATTATGAATTCATTCATATAAGGTAGAAGTGGTAACTATGGTTGAAACATTAATATAAAACGGTCATTTTGCATGAACGTCATTAAGGAACTGGCATACCAATGTCTATTTAGTGACTATGATATTTAGAGTATCCCTTATATTAATTAACAATTATTCCTTTTAGCATATCATCCGACAACAAATTTTAAAAGAAGAAATATTACTCATTAAAA
B2: Avian infectious bronchitis virus (nucleic acid)
DNA: ACTTAAGATAGATATTAATATATATCTATTACACTAGCCTTGCGCTAGATTTTTAACTTAACAAAACGGACTTAAATACCTACAGCTGGTCCTCATAGGTGTTCCATTGCAGTGCACTTTAGTGCCCTGGATGGCACCTGGCCACCTGTCAGGTTTTTGTTATTAAAATCTTATTGTTGCTGGTATCACTGCTTGTTTTGCCGTGTCTCACTTTATACATCTGTTGCTTGGGCTACCTAGTGTCCAGCGTCCTACGGGCGTCGTGGCTGGTTCGAGTGCGAGGAACCTCTGGTTCATCTAGCGGTAGGCGGGTGTGTGGAAGTAGCACTTCAGACGTACCGGTTCTGTTGTGTGAAATACGGGGTCACCTCCCCCCACATACCTCTAAGGGCTTTTGAGCCTAGCGTTGGGCTACGTTCTCGCATAAGGTCGGCTATACGACGTTTGTAGGGGGTAGTGCCAAACAACCCCTGAGGTGACAGGTTCTGGTGGTGTTTAGTGAGCAGACATACAATAGACAGTGACAAC
B3: Hubei tombus-like virus 9 (nucleic acid)
DNA: GGACCATCCAGGCAGGTGTAGGCTAGTACCCTCACCTGACCTGTCGCGATGTTTGGCTTTGTGAGGCTTGTGGGAGGATCCCTTGGCCCATGCATTGCTGCTGTCATCGTGAAAAATGTTGTATGCTCGCACCTGGCGTGGAGGAAACGGCATTTGACGGATGCTAAGGAGGATTTGAAGGTCCTCAACTCCCATGCCTTATTACAAGTCCCCTTTCCTTCAAGCTTCGAGCCCACGTCTGTGACGAGCAGAGGTGAGGTTGGAGTCAAGAGGAGTCCTATTCAAGCTGTTCGCAGCAAGAACCATAAAACTTTCATTGCTCAATGGGCAAGAGCGGCTAAGGCTCGGTTCTCGTTTGCACGACAGTGTGAGCGGAGCCCTGTAAATGTCGCGGCCCTTCATCGGTGGTTTGCATCGGAGTTTAAGAAAATTGGCATGAACTTGCTCCAGGTTTCGTACGTGATCGATGAGGTTGTTGAACTTAGTTTGGAACCAACGTATGAGCGTATGGTGTCCGAAACTAAGAAGCAATTCCGTCATCGGGCACGTATGGAATACTACAACGAGAAAAAATGCCTTGAAAAGATCCACTAGGAACGC
B4: Human rhinovirus 1 (nucleic acid, listed as Rhinovirus sp.)
DNA: TTAAAACTGGGTGTGGGTTGTTCCCACCCACACCACCCAATGGGTGTTGTACTCTGTTATTCCGGTAACTTTGTACGCCAGTTTTTCCCTCCCCTCCCCATCCTTTTACGTAACTTAGAAGTTTTAAATACAAGACCAATAGTAGGCAACTCTCCAGGTTGTCTAAGGTCAAGCACTTCTGTTTCCCCGGTTGATGTTGATATGCTCCAACAGGGCAAAAACAACAGATACCGTTATCCGCAAAGTGCCTACACAGAGCTTAGTAGGATTCTGAAAGATCTTTGGTTGGTCGTTCAGCTGCATACCCAGCAGTAGACCTTGCAGATGAGGCTGGACATTCCCCACTGGTAACAGTGGTCCAGCCTGCGTGGCTGCCTGCGCACCTCTCATGAGGTGTGAAGCCAAAGATCGGACAGGGTGTGAAGAGCCGCGTGTGCTCACTTTGAGTCCTCCGGCCCCTGAATGCGGCTAACCTTAAACCTGCAGCCATGGCTCATAAGCCAATGAGTTTATGGTCGTAACGAGTAATTGCGGGATGGGACCGACTACTTTGGGTGTCCGTGTTTCACTTTTTCCTTTATTAATTGCTTATGGTGACAATATATATATTGATATATATTGGCATC
B5: Goat torovirus (nucleic acid, listed as Torovirus sp.)
DNA: GTACTTACAAGCGGGTTAAACCGCCCTCCGGAACGGTTACAACCCCCTCCCGAACGTGCGCTTGACGTGACTGGTTCTCAGTCTGGCTTTCTGAGAAATACTCCAGGGTTGTATCCCACCATCTTGACCTCTGGTCATTTTGGTAACACCATAACCAAACAAACTCTACACACCTAACCCACCTCCAGCTTGCTGCAGGCCTTTTGGACTAAACGGGTTTAGGTGTTTTGTGACCAACTCGTCTACCCACCTCCAGTTTTACTGCAGGCCTTTTTGGACTAAACGGCTTTAGACTTTTGTGGTTAGTTTTTAACTACCCACTGTTTAGCCGCCAACCTGATTTTCATTGTTGTAAAATTTTGTGTTTATACACTATTTTCATACGGTTGGCAGTTTGTTTGGTTGTTTGCACAGTTTTTGTTGATACCAATTTTTACTGTGCTTTTAGTGTATTCTGCTAAGGCTGTATTTTACATACTTAGTTTGGTTGAAGCAATTTTTACAACATTTATATTGTTTTTGATTTCTAAGGTAAAGAGTCTTAGGAAACACCATAGACGCCATTCTTGTGGTGTCTAGTTCCAACTAATCTGGCAAACAAGTACCAAGTCATTGACTCACTTTGGAGTGAGACTTACGAGTACCAATTTGCCTATTTCGGACATCCATATAAAG
B6: Feline infectious peritonitis virus (nucleic acid)
DNA: ACTTTTAAAGTAAAGTGAGTGTAGCGTGGCTATAACTCTTCTTTTACTTTAACTAGCCTTGTGCTAGATTTGTCTTCGGACACCAACTCGAACTAAACGAAATATTTGTCTCTCTATGAAACCATAGAAGACAAGCGTTGATTATTTCACCAGTTTGGCAATCACTCCTAGGAACGGGGTTGAGAGAACGGCGCACCAGGGTTCCGTCCCTGTTTGGTAAGTCGTCTAGTATTAGCTGCGGCGGTTCCGCCCGTCGTAGTTGGGTAGACCGGGTTCCGTCCTGTGATCTCCCTCGCCGGCCGCCAGGAGA
B7: Megirivirus E (nucleic acid)
DNA: GCTTGGCAACCTCATATCGTTACTCTGCCGACCAGTCTGGGTCGTGTGGCCACACAATGGGATTCGTTCTGTTGTGTAGAGTCACATGGCATTACTGGGCTGATCGGTGGGGATCCGTTGCCACCCCTAAACCCTTACATTTACTGGACTGCTTTTCTTGGCCCCGGAATGATTCGCTCACCCGCGATGAGGACTGTTGTTCTTATTATGGCAGGATTACGCGTCTGGTCCGCGTAAGGACTAATTCCTATGTTTATACGTTACTACCTTGTTCTGAACGGTGGGCGCCACCCCGCCTAGTAGGATCCTGGCTTATCGTGTAGACCTCTAGGGACCACATTAGCTAGAGTGTAGGCTGCTATGGATGGAGTAGTGACCCCTTTTTGGGTATCACTCTCTAAGACTCCGGAATGTGTCATAGTACGCTGGAAATCCTTACTTGTTTTTCCATGAGGGGGAGGTGGTGCTGAAATATTGCAAGCCACCCCTCGGTTAAAACAGTTTGGTGCCGCTTATGCCATATTACCGCCCCTTGTAGTTGGGCTGTTTTTGCAGCTCCGGGTTAGTAGAGTACCATAGTGGACGCGGTGTTGGGAATCACCGCCTTGGCTGCACACTGCTTGATAGAGCTGCGGCTGGTCAAGCTAATTGTGGTATAACCAGTTGATTTGGCAT
B8: Hubei zhaovirus-like virus 1 (nucleic acid)
DNA: GTGCAGGATGGCCTTTCCCATCTTAAGTGGTTTGTAGGATTTCGTGGGTCCATACCCCCCGATTTCTTGGTACGTATTCCATGCACGGAGAATACGACCAAAACTCTTATTTCAAAAAATATTATTTTTTACTCTTGTGGGCTGAGTGCGACCCACCAGTTCCAGCTTAGCAACCTGGAAGTTGTTGGAGATTTATGGAACCAAATTACACATGCGTGGAGTGCCGCCACTCCGTATCTGTTCACTCATTACGCGATTAAGTTCTGCGACGAGACGAGCGAA
B9: EV22 (nucleic acid)
DNA: CCTTATAACCCGACTTGCTGAGCTTCTATAGGAAAAAACCCTTTCCCAGCCTTGGGGTGGCTGGTCAATAAAAACCCCCATAGTAACCAACACCTAAGACAATTTGATCAACCCTATGCCTGGTCCCCACTATTCGAAGGCAACTTGCAATAAGAAGAGTGGAACAAGGATGCTTAAAGCATAGTGTAAATGATCTTTTCTAACCTGTATTATGTACAGGGTGGCAGATGGCGTGCCATAAATCTATTAGTGGGATACCACGCTTGTGGACCTTATGCCCACACAGCCATCCTCTAGTAAGTTTGTAAAATGTCTGGTGAGATGTGGGAACTTATTGGAAACAACAATTTGCTTAATAGCATCCTAGTGCCAGCGGAACAACATCTGGTAACAGATGCCTCTGGGGCCAAAAGCCAAGGTTTGACAGACCCATTAGGATTGGTTTCAAAACCTGAATTGTTGTGGAAGATATTCAGTACCTATCAATCTGGTAGTGGTGCAAACACTAGTTGTAAGGCCCACGAAGGATGCCCAGAAGGTACCCGCAGGTAACAAGAGACACTGTGGATCTGATCTGGGGCCAACTACCTCTATCAGGTGAGTTAGTTAAAAAACGTCTAGTGGGCCAAACCCAGGGGGGATCCCTGGTTTCCTTTTATTGTTAATATTGACATT
B10: Human TMEV-like cardiovirus (nucleic acid, listed as Cardiovirus sp.)
DNA: TCCGACGTGGTTGGAATTAACATCTTTTCCGACGAAAGTGCTATTATGCCTCCCCGATTGTGTGATGCTTTCTGCCCTGCTGGGCGGAGCGTCCTCGGGTTGAGAAACCTTGAATCTTTTCCTTTGGAGCCTTGGCTCCCCCGGTCTAAGCCGCTTGGAATATGACAGGGTTATTTTCCAAACTCTTTATTTCTACTTTCATGGGTTCTATCCATGAAAAGGGTATGTGTTGCCCCTTCCTTCTTTGGAGAATCTGCGCGGCGGTCTTTCCGTCTCTCAACAGGCGTGGATGCAACATGCCGGAAACGGTGAAGAAAACAGTTTTCTGTGGAAATTTAGAGTGGACATCGAAACAGCTGTAGCGACCTCACAGTAGCAGCGGATTCCCCTCTTGGCGACAAGAGCCTCTGCGGCCAAAAGCCCCGTGGATAAGATCCACTGCTGTGAGCGGTGCAACCCCAGCACCCTGGTTCGATGGCCATTCTCTATGGAACCAGAAAATGGTTTTCTCAAGCCCTCCGGTAGAGAAGCCAAGAATGTCCTGAAGGTACCCCGCGCGCGGGATCTGATCAGGAGACCAATTGGCAGTGCTTTACGCTGCCACTTTGGTTTAAAAACTGTCACAGCTTCTCCAAACCAAGTGGTCTTGGTTTTCCAATTTTGTTGACTGACAAT
B11: Farmington virus (nucleic acid)
DNA: ACGACGCATAAGCAGAGAAACATAAGAGACTATGTTCATAGTCACCCTGTATTCATTATTGACTTTTATGACCTATTATTAGACCCTTCACGGGTAAATCCTTCTCCTTGCAGTTCTCGCCAAGTACCTCCAAAGTCAGAACG

The molecules below were run on HEK293 cells. Details: luminescence from secreted Gluc in supernatant 24 hours after transfection of HEK293 cells; circular RNA encoding Gluc with the named IRES (UTR truncated to 675 nt).
Type: cell-based, human

| Molecule | Expression |
| --- | --- |
| B1 | 1.30E+05 |
| B2 | 2.84E+05 |
| B3 | 9.28E+04 |
| B4 | 7.40E+07 |
| B5 | 1.19E+05 |
| B6 | 1.35E+05 |
| B7 | 1.10E+07 |
| B8 | 1.03E+05 |
| B9 | 1.95E+07 |
| B10 | 4.48E+07 |
| B11 | 1.22E+05 |
